In paper PMC2786004 (Biochemistry, 2009):

Molecular target: the molecule itself
Experiment: crystal structure

B1: Bacillus halodurans tRNA isopentenyltransferase MiaA (BH2366), full length (enzyme, UniProt Q9KAC3 1-314, looked up)
chain: MKEKLVAIVGPTAVGKTKTSVMLAKRLNGEVISGDSMQVYRGMDIGTAKITAEEMDGVPHHLIDIKDPSESFSVADFQDLATPLITEIHERGRLPFLVGGTGLYVNAVIHQFNLGDIRADEDYRHELEAFVNSYGVQALHDKLSKIDPKAAAAIHPNNYRRVIRALEIIKLTGKTVTEQARHEEETPSPYNLVMIGLTMERDVLYDRINRRVDQMVEEGLIDEAKKLYDRGIRDCQSVQAIGYKEMYDYLDGNVTLEEAIDTLKRNSRRYAKRQLTWFRNKANVTWFDMTDVDFDKKIMEIHNFIAGKLEEKSK
stoichiometry N: 2
